Drawing on the supplement of paper PMC12042874, this text covers amyloid nucleation score for 133 substances.

± gives the uncertainty stated by the source.

The data set in a line: amyloid nucleation score (Sup35N fusion, yeast selection) (log enrichment); library NNK3; higher = more nucleation; inactive = no reads after selection. The procedure, abridged:
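The nucleation score is the DiMSum log enrichment of output over input reads, centred on the mode score of non-aggregating sequences. Only sequences with 100 or more input reads were scored, using Illumina sequencing of input and output plasmid inserts. Psi-negative yeast expressing Sup35N fused to peptides of 20 random codons were induced 24 hours with 100 μM copper sulfate and grown 7 days at 30°C on medium lacking adenine and uracil.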

The substance YVIICYST returned an amyloid nucleation score of -0.539 ± 1.

On to SMRQSFQWCYHSAECYVHSG, for which the amyloid nucleation score is 0.337 ± 0.31.

As to FIFSTLHNVLHGSNRVNSVW, the amyloid nucleation score entry was “inactive”.

For the substance YWMPIDLGFSSLNWPESSRS, the amyloid nucleation score result is “inactive”.

Turning to YVLRLASCSFTPVSEVHLSW, the amyloid nucleation score entry was “inactive”.

For IKYFAIVSVCGFVA, the amyloid nucleation score worked out at 1.23 ± 0.13.

As for YGCRINLIDRYALKYCVTED, the amyloid nucleation score entry is “inactive”.

With SGGYLYRSSLSTVNSEDAMV, the amyloid nucleation score entry is “inactive”.

Take DFLFTNFSNSDLRGILCQSF: the amyloid nucleation score result was “inactive”.

The substance YSFAVPSNLLLLK showed an amyloid nucleation score of -0.302 ± 0.52.

For DGRAWRALRGPK, the amyloid nucleation score result is “inactive”.

Take VDIGTYMFKMTHADRWVDHG: the amyloid nucleation score result is “inactive”.

On to IRNSVLWGHFIR, for which the amyloid nucleation score result was “inactive”.

Consider FYGFGGISIRSGVVGIVDMK, for which the amyloid nucleation score entry was “inactive”.

For the substance SMHYAQYIIIYWRMSSRVYD, the amyloid nucleation score entry is “inactive”.

As to IPGYLLDHTAHK, the amyloid nucleation score result was “inactive”.

ICTLCNVSRLLWSPRDKNAF had an amyloid nucleation score of 2.93 ± 0.063.

For MCGLVTFWRALRGNRGRY, the amyloid nucleation score result is “inactive”.

Consider PTRFMTMKETKPVCWWLGNR, for which the amyloid nucleation score was -0.114 ± 1.1.

Turning to LDTYTRNYLD, the amyloid nucleation score entry was “inactive”.

As for MILILY, the amyloid nucleation score result was “inactive”.

In the case of RVDSYVSMTYHIRWFFVRTE, the amyloid nucleation score result is “inactive”.

Regarding LVVYSVGFWHR, the amyloid nucleation score is -0.143 ± 0.48.

On to DCKLVDIDSLLVTFDR, for which the amyloid nucleation score entry was “inactive”.

In the case of RYKVD, the amyloid nucleation score result was “inactive”.

On to ALYTCMNLSYPLHSEFVTPR, for which the amyloid nucleation score result was “inactive”.

Regarding EGEVCSVCY, the amyloid nucleation score result is “inactive”.

In the case of GYTDRLVLNRKGGQYGGFEN, the amyloid nucleation score entry is “inactive”.

With LNHGVCIFYDQFANLELPPR, the amyloid nucleation score turned out to be 2.09 ± 0.067.

Regarding RDIASQC, the amyloid nucleation score was -0.698 ± 0.98.

For the substance NGLLNRQSTSWWSTLNYCGD, the amyloid nucleation score result was “inactive”.

As to SNASQLY, the amyloid nucleation score result is “inactive”.

HIVKKFPSPMRITWCGSPFQ: the amyloid nucleation score entry is “inactive”.

In the case of VRACNRLVYRFGDTVISDKR, the amyloid nucleation score entry was “inactive”.

Turning to NKCSVMCHLDGVTWVPERAV, the amyloid nucleation score result is “inactive”.

In the case of YLRDF, the amyloid nucleation score result was “inactive”.

ISWVRFRAVFWMRMFEAH had an amyloid nucleation score of -0.441 ± 1.4.

Consider VYYVNS, for which the amyloid nucleation score was determined as 0.492 ± 0.18.

As to NNVKRSSPDSQVPSQVSMRF, the amyloid nucleation score result is “inactive”.

HSYHPMPWTVNLGCHFGGYC yielded an amyloid nucleation score of 2.38 ± 0.068.

With WSDLRI, the amyloid nucleation score entry is “inactive”.

As for GQKCHLGCAFGCDEYTWAKG, the amyloid nucleation score entry was “inactive”.

On to KSWVIKLSGFVETWHRMD, for which the amyloid nucleation score entry is “inactive”.

LSVYGLQGHSNHNRMDGISW yielded an amyloid nucleation score of 0.718 ± 0.2.

Regarding DFFAHVNAIG, the amyloid nucleation score result is “inactive”.

In the case of GGKVSERRYVDLCRLPSVAP, the amyloid nucleation score entry was “inactive”.

On to KAERVVRA, for which the amyloid nucleation score result was “inactive”.

As for IVSMSCGWFRGYRVDDGYM, the amyloid nucleation score is 1.38 ± 0.083.

On to LRVRLCSGSSRIWLEVLVRR, for which the amyloid nucleation score entry was “inactive”.

Consider RRLCKYYLQVKSPCIGHDCQ, for which the amyloid nucleation score result is “inactive”.

Regarding NGINNCSEIKHVCTGLANPV, the amyloid nucleation score result was “inactive”.

As for RTHGCCSVCNTEFADGVVLS, the amyloid nucleation score entry is “inactive”.

On to MEYWYYDMD, for which the amyloid nucleation score entry is “inactive”.

In turn, FLMNDSCDRTIWFNVFLSNS returned an amyloid nucleation score of 0.7 ± 0.18.

For GVTLFSVVQTFLVSTLCKIE, the amyloid nucleation score entry was “inactive”.

For the substance LCCAPNADFWIN, the amyloid nucleation score entry was “inactive”.

As for ISQGFGCEFVFWFEEGKFFH, the amyloid nucleation score entry was “inactive”.

Consider CCFVRWGFGC, for which the amyloid nucleation score was determined as 1.38 ± 0.091.

Consider KRDEVVKFLLDGVGASGYNA, for which the amyloid nucleation score entry was “inactive”.

As for MLWYLESWLTLHGTVECNVW, the amyloid nucleation score result is “inactive”.

On to SIKSSISIFKYF, for which the amyloid nucleation score result was “inactive”.

NIGWV registered an amyloid nucleation score of -0.568 ± 1.3.

As to SEQVMRTRDSTRAKSGLNVI, the amyloid nucleation score was found to be 0.569 ± 0.22.

Turning to SCTVKLDCNAVDSVSMDDVD, the amyloid nucleation score result was “inactive”.

With ALVAKVVIGSRW, the amyloid nucleation score was determined as 0.569 ± 0.3.

In the case of FLSLWLCSRCVSKSCGGFML, the amyloid nucleation score result is “inactive”.

Take LSVCVIEHAWVFCRTPVQAF: the amyloid nucleation score entry was “inactive”.

Turning to LPMQYKLLSVFVADFFTIFV, the amyloid nucleation score is -1.07 ± 1.7.

On to WPFHWSFSFVISMYMSWGNS, for which the amyloid nucleation score entry is “inactive”.

Substance SLLLTSWESVYIMRGLDRTI had an amyloid nucleation score of 0.086 ± 0.42.

Turning to NLLGTVIIFLRDGSS, the amyloid nucleation score worked out at 2.13 ± 0.064.

GLFRGYGVTLVRRLWSRIMY: the amyloid nucleation score entry was “inactive”.

Turning to DMLFDQGLSCNGLI, the amyloid nucleation score result is “inactive”.

IVTNDVCVFSVQYSRFVVRL: the amyloid nucleation score came out at 0.416 ± 0.23.

Take TKCLLFFNRGCR: the amyloid nucleation score was 1.1 ± 0.14.

RPRRTCWM: the amyloid nucleation score entry was “inactive”.

On to QVLRSYHYGCYSGCGALHMR, for which the amyloid nucleation score entry was “inactive”.

MVGVGSKLGLLAATEVWNEI: the amyloid nucleation score entry is “inactive”.

As for SVNLFVLMYLFII, the amyloid nucleation score is 1.9 ± 0.061.

Substance CRGTEAGHPHVGIDHRARMV came in with an amyloid nucleation score of -0.957 ± 1.8.

As for MPSLRRS, the amyloid nucleation score result was “inactive”.

In turn, WSYIVLTVLTWVACCTFWFV came in with an amyloid nucleation score of -0.436 ± 0.49.

Regarding VIMVSSRDQADLCESVMQM, the amyloid nucleation score result was “inactive”.

In turn, LIVNSRSVFNITHFLNINYQ registered an amyloid nucleation score of 2.1 ± 0.077.

For YLNISILFNCVWDKVFFRYH, the amyloid nucleation score result was “inactive”.

As to WSTPWMWVRFGRIDHCSLGV, the amyloid nucleation score result was “inactive”.

Consider LRASTPYHPMLFELGKLALI, for which the amyloid nucleation score result was “inactive”.

Take MQICSCYRFSD: the amyloid nucleation score stood at 2.45 ± 0.071.

Consider LGQFAIAQYFNRYSRGPMLW, for which the amyloid nucleation score entry is “inactive”.

Consider MFLFKVTDTE, for which the amyloid nucleation score came out at 1.88 ± 0.098.

Take YPNMWLDEYRMVFAYYLPCG: the amyloid nucleation score result is “inactive”.

Regarding FSIDTNGSCYRIDARHVK, the amyloid nucleation score entry was “inactive”.

For SQVDIMGKPADAFVPWFDGS, the amyloid nucleation score result is “inactive”.

As to TIEIGSLYTITM, the amyloid nucleation score was -0.251 ± 0.45.

As for HFNPPYRMFPHYVLLMNMYL, the amyloid nucleation score entry is “inactive”.

For the substance LCCGKCRPGPKFCTKISHTN, the amyloid nucleation score result was “inactive”.

Turning to VCLMNVSLRRSSFGATTVLA, the amyloid nucleation score entry is “inactive”.

Consider APPGFFIIVMSCWCYITRAL, for which the amyloid nucleation score entry was “inactive”.

Regarding NRASSVSCS, the amyloid nucleation score result was “inactive”.

On to IKEFLCLDLCQGGGLLSLMV, for which the amyloid nucleation score entry is “inactive”.

With LFSQHYWIVSIFIASWIRYC, the amyloid nucleation score entry was “inactive”.

With ILSTIVMFLVPSYHLFWLWA, the amyloid nucleation score result was “inactive”.

In turn, YICTNNLTYNSMMQIFSKIM gave an amyloid nucleation score of 0.394 ± 0.33.

With DCIYRDVCFNFTYMCKVNAQ, the amyloid nucleation score entry was “inactive”.

Consider LLDSVDMLGFVMWVFGEVTN, for which the amyloid nucleation score result was “inactive”.

For the substance LSSHS, the amyloid nucleation score entry was “inactive”.

For LRVYLLAWL, the amyloid nucleation score stood at 0.781 ± 0.16.

For KDIYYTSFILPDEWITG, the amyloid nucleation score result is “inactive”.

Take NLAFAVYARTRLKLSPASCV: the amyloid nucleation score result was “inactive”.

For the substance SKPNMAELKLHFTGYPHPAK, the amyloid nucleation score entry is “inactive”.

For ANLADKILFFGSPCRVMHPV, the amyloid nucleation score result was “inactive”.

Regarding DVVSLGIMQKGSWSGCML, the amyloid nucleation score result is “inactive”.

The substance AIYLSFRGNA returned an amyloid nucleation score of 1.65 ± 0.071.

In the case of PKMSPSAMRSCDDLASPFIS, the amyloid nucleation score entry was “inactive”.

On to FTVCFVLPIAITPMMWDIWY, for which the amyloid nucleation score result was “inactive”.

For PFDVHKRR, the amyloid nucleation score result was “inactive”.

TWGPHLIPLFNNL: the amyloid nucleation score result is “inactive”.

For the substance QCMIYYTDKLLKYSSCTRTM, the amyloid nucleation score result is “inactive”.

On to FLNCFSC, for which the amyloid nucleation score was found to be 2.69 ± 0.054.

With LWHKMSDMV, the amyloid nucleation score result was “inactive”.

Substance VLFCRFSSWV showed an amyloid nucleation score of 0.739 ± 0.26.

On to SIFMWLRNRC, for which the amyloid nucleation score result is “inactive”.

Regarding DRAGHGSV, the amyloid nucleation score entry was “inactive”.

Regarding GMNKLL, the amyloid nucleation score entry was “inactive”.

As to YRDTICPYETAREDMNYLLG, the amyloid nucleation score entry is “inactive”.

On to DSDYGNVVWRFYRSYGCTGL, for which the amyloid nucleation score entry was “inactive”.

FVCYNTFSSSACSLCNHLSH displayed an amyloid nucleation score of 2.4 ± 0.053.

MSVIIAIAMYRLFRDRTHPL: the amyloid nucleation score result is “inactive”.

ADYLLSYACQSTLSHQKKRP registered an amyloid nucleation score of -0.854 ± 1.7.

With FTNLYMPTRERHCRGSHMW, the amyloid nucleation score entry is “inactive”.

On to WLPPRVMLFTPLRQWLYR, for which the amyloid nucleation score entry was “inactive”.

For INPFLHMVTSLIVEFRVLNC, the amyloid nucleation score entry was “inactive”.

For YFIMSFSLQNFMGSPLNRLG, the amyloid nucleation score entry was “inactive”.
